The data set in a line: protein stability index of a GFP-peptide fusion (GPS, HEK-293T) (PSI 1-6); higher = more stable. Conditions: c terminus: native.
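Also: lentivirally expressed fusion library, cells FACS-sorted into six equal-sized GFP/DsRed ratio bins, PSI computed from sequencing read fractions per bin weighted by bin number.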

For the protein LPALFTDLYSQEITAEEAREALPP [SNF8 addP], for the setting “parent: NP_009172.2”, the protein stability index was found to be 2.03.

Take DGWIRVSSDNVADLHEKYSGSTPP [PSMB5 addP]: the protein stability index (parent: NP_002788.1) worked out at 4.78.

CQPISFSGFGAEDDDLGGLGLGPP [POLD2 addP]: under “parent: NP_006221.1”, the protein stability index was found to be 4.45.

Values taken from the supplement of paper PMC10567573.
